This is an account of results in article PMC2233640, “Human NCU-G1 can function as a transcription factor and as a nuclear receptor co-activator”.

This data set addresses T1, NCU-G1 (kidney predominant protein), GST fusion (Homo sapiens, UniProt Q8WWB7 1-406).
T1 sequence: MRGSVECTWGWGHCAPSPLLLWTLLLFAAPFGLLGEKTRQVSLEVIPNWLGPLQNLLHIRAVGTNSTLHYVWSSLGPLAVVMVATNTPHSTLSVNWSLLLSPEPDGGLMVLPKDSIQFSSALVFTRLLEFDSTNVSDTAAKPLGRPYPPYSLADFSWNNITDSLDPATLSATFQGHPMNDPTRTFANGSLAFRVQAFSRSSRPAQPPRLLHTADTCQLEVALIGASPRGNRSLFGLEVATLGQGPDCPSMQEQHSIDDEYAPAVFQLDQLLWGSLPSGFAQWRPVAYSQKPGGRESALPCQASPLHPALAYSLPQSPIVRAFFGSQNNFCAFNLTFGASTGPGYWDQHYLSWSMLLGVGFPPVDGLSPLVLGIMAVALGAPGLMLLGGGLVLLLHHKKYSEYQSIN
As to the kind of experiment: competition; 50-fold molar excess unlabeled vs 32P-FP1, EMSA; EMSA: 3 x 10^4 cpm 32P probe with 2 ug GST-NCU-G1; buffer, salt, pH and temperature not given (as described in ref 17). The following applies: protein: recombinant; tags: N-terminal GST (pGEX-5X-3); double-stranded.

B1: AP1 oligonucleotide (dsDNA)
DNA 1: CGCTTGATGACTCAGCCGGAA
DNA 2: TTCCGGCTGAGTCATCAAGCG
Take B1: the binding result is “no binding”.
